Reference: the DeepSol protein solubility set

Test: soluble on expression in E. coli; label from the status in PepcDB or PDB records

Q: For “MHIDNEDALFDWLSDELSPITDADPNALAKYVLALVKKPDKGHDELKAFTNEQLNVFLTDHTAPFVDKVFEALTSKSYMPASTAPTSASATAPDLKKEKAPAEKPSKPTAPPGVQKSSSSPSASKAESRPLRKRISPPPSENREKEKQSRDKERRRSRSPRDRRGRATTSRSGRTSSSDRDRHSKRRSRSRSRSSSGSRTPPYKSRSSRRRCKDFEERGYCIRGDQCPYYHGRDPVVVDENALGSMVPLPATAPNFSLPPPGYNPLNPPPPGVVVAAGEYNPEAPALNNYSIPPPPIPGQWQQPHVAAQYVPQSVSSYSQPPPAAAQGVVTQPGSFRGAPRGRGNIRGRGGFARGGFTGAINRDNCTLQVAKIPPEMNTIAKLNEHFATFGTVDNIQVRYNGEIDSALVTYASKFDAGKAYKSPTPVLNNRFIKVFWHNPGGEGSENATGKPSSPTSPPKPVEKPKIATVQESKFVSVAAQNYRKQIQDAKERLTKEKSILSTLVQAQNQHNIILDKWMVKQKELLIKARTSTDETDKKNATKLVKHLHKKIKACKEEVDGILLKISEKSMVVDEIAAQIEELKNPQKSDDSTRKRKAGSDGDEPQSKMSSVVIVRGVTDELVTDLMAHMEKFGEVFDHSVKADDDGLITAVFPFRKTGDALKAMADGKVLNGVDLEMELKTERIEEIPSTDTNMSADQLLAAIPSNLESDEEDDLLND”, which “soluble on expression in E. coli” value is on record?
A: not soluble

Q: For “GIPRNSSTGAKTAKSDKLKVVATNSIIADMTKAIAGDKIDLHSIVPIGQDPHEYEPLPEDAEKTSNADVIFYNGINLEDGGQAWFTKLVKNAQKTKNKDYFAVSDGIDVIYLEGASEKGKEDPHAWLNLENGIIYSKNIAKQLIAKDPKNKETYEKNLKAYVAKLEKLDKEAKSKFDAIAENKKLIVTSEGCFKYFSKAYGVPSAYIWEINTEEEGTPDQISSLIEKLKVIKPSALFVESSVDRRPMETVSKDSGIPIYSEIFTDSIAKKGKPGDSYYAMMKWNLDKISEGLAK”, which “soluble on expression in E. coli” value is on record?
A: soluble

Q: For “MGSDKIHHHHHHMLRAELHVHSSFSDGRDGVRKILEAAVEKKLEVIAITDHDTVQGSLEAIDIVKEEHLPLKVLPGCEVTASTGHVLVYGITKDIEPRMSVEETCKIARELGGVCFLAHPFDFIRKGSVRLKDFKMVDGIETFNAKSYFNFLAKRYAKKLSKPEIAGSDAHSARAVGLAINYLPDEFDLLNALFHARFDGRRVSIRERLAFLRFRLNQRL”, which “soluble on expression in E. coli” value is on record?
A: not soluble

Q: Which “soluble on expression in E. coli” value does the source give for “MGSDKIHHHHHHMTAQSSHMLVLQSTVTSAFKTIASEKQGLEALEEALLGYLSSAFQAAVQTIRNANGHVVITGLGKSGHIGAKIAATLASTGTPAFFVHAAEANHGDLGMIGSDDVILALSWSGETSELSGIINHAARFRTPLIAMTSGEHSVLGRQADIVLLLPKIEEACPHGLAPTTSTIMQLAMGDALAVALLEMRGFTATDFKIYHPGGSLGASLKYVRDIMHQGESIPLVAQGTAMAKAMSVLVEKHFGCVGVVNQEGELIGIVTDGDLARNIHVNLSKFNVDELMTKDPKIVEPNTLVGAATAFINEHHIGAFFVVENKKPIGIVHFHDLLRIGAA” here?
A: not soluble

Q: With “DKTVKRAVPFKIIKMIKELDLSFEPQLELARDIFLFSFYTRGMSFIDMAHLKKSNLQNGILTYSRKKTGQRLTILWEELMQEIVDKYKDDTSEYLLPILRYCDINDRKQYKLRAKQIGRGLNKIGLRLELKAPLTFYVARHSWASIAQDRKVSTDIIREGLGHDNEKTTHIYLASISTSQIDRANQIILRGL” as the sequence, how does the “soluble on expression in E. coli” value read?
A: soluble

Q: With “GSSGSSGMEAVLNELVSVEDLKNFERKFQSEQAAGSVSKSTQFEYAWCLVRSKYNEDIRRGIVLLEELLPKGSKEEQRDYVFYLAVGNYRLKEYEKALKYVRGLLQTEPQNNQAKELERLIDKAMKKSGPSSG” as the sequence, how does the “soluble on expression in E. coli” value read?
A: soluble

Q: With “MKKGCKYGTHRVIEPAGVLPQPAKKISNDMEIFSNEILIDVIALNIDSASFTQIEEEAGHDVEKVKAKIKEIVAERGKMQNPVTGSGGMLIGTVEKIGDDLVGKTDLKVGDKIATLVSLSLTPLRIDEIINIKPEIDRVEIKGKAILFESGIYAVLPKDMPENLALAALDVAGAPAQVAKLVKPCQSVAILGSAGKSGMLCAYEAVKRVGPTGKVIGVVRNDKEKALLQRVSDKVKIVIADATKPMDVLHAVLEANDAKEVDVAINCVNVPNTEMSTILPVKEFGIAYFFSMATGFSKAALGAEGVGKDITMIVGNGYTVDHAAITLEELRESAVLREIFNEIYLLEHHHHHH” as the sequence, how does the “soluble on expression in E. coli” value read?
A: soluble

Q: Which “soluble on expression in E. coli” value does the source give for “MAAISLAKVEETAPALVSLYKSAGVSLHKHGLDGQRAAVYLVVDYSGSMRPYYKDGSVQALTDRVLGLSAHLDDDGTVPVVFFSTDIDAVTDIALADHQGHIELIVAGLGHMGKTSYHLAMDAVIDHYLDSGSKDPAFVVFQTDGGPTSKPAAERYLCKAAELPLFWQFIGFGDPGSRQFEFLRKLDELAVPHKRVVDNAGFFHAGTDPRKVSDGELYDRLVGEFPQWLAAARTHGIVRLEHHHHHH” here?
A: not soluble

Q: Which “soluble on expression in E. coli” value does the source give for “MLNIFCPHCGELRSEEEFHAKGQAHIPRPLDPNACSDEEWGDYMFFRDNPRGLHHELWVHAAGCRKYFNVTRHTVTYEILETYLIGEQPSVVADGEKKPAVQGEPA” here?
A: not soluble

Q: For “MGGSHHHHHHGMASALRTDKKSEFLKALKRDRVEEEHEDESRAGSEKDDDSFNLHNSNSTHQERDINRNFDENEIPQENGNASVISQQIIRSSTFPQTDVLSSSLEAEHRLLKEMGWQEDSENDETCAPLTEDEMREFQVISEQLQKNGLRKNGILKNGLICDFKFGPWKNSTFKPTTENDDTETSSSDTSDDDDV”, which “soluble on expression in E. coli” value is on record?
A: not soluble

Q: For “MGSDKIHHHHHHMAQHVIEMREITKKFDDFVANDHINLDLRKGEIHALLGENGAGKSTLMNMLAGLLEPTSGSIKINGSAVTIDSPSKSAQLGIGMVHQHFMLVEAFTVTENIILGNEVVKNGILDLKKAGQEIKALSEKYGLAVDPNAKIADISVGAQQRVEILKTLYRGADILIFDEPTAVLTPSEIQELMTIMKSLVKEGKSIILITHKLDEIRSVADRVTVIRRGKSIETVEVSGTTSQDLAEMMVGRSVSFTIEKTPTKPKETILSIKDLVVNENRGIPAIKGLSLEVKAGEIIGIAGIDGNGQSELVQAITGLRKIKSGHLTIKGQDVTKLSTRKITELSVGHVPEDRHRDGLILELTMAENLALQTYYKAPLSHNGVLNYSKINEHGRHLMQEFDVRGANELIPAKGFSGGNQQKAIIAREVDRDPDLLIVSQPTRGLDVGAIEYIHKRLIAERDEGKAVLLVSFELDEILNLSDRIAVIHDGQIQGIVTPETTNKQELGILMAGGSIEREEINV”, which “soluble on expression in E. coli” value is on record?
A: not soluble

Q: Which “soluble on expression in E. coli” value does the source give for “MSLKLTKKVGYAGRVITERGLEELEKANISYRLGSIYSNILEKTISANYRFGYVVINRCQVYADFNDVLKIIKSVYESGLAVGDRVGIIDREKFVEINTLCSLNFDNILLQNGIFPLHVCAGVVKYEDGKPVEFKEIIDYKSTSIDPLRAFIEKKETDVMGIIENGEGYLPANFRYFGVEFLERFETILEIDELKCIISYGTENVLGLDVGDDKVGVALIGGLTPIAPFVENNYCVEICPMSSIVRLESLHKLKKNPRDIVTKKANIRIKTALSKMFNAMAKVTYDIDEADGDVIVNTAFIDKKYLDEAFDILKEAYKKGLGISDRFGIVEENDRIKIQTICAVTLDGIFLRNSVPLIPKYGGILEITEDKERFIDIIGYDGSSLDPHEVFFNFVDCEKTFLAGFREVHRVAREKLEEVLKKLNWNGIKAIGEPNNELYGIGVNKDMCGVVTMGGINPLVLLKENEIPIELKAMHEVVRFSDLKSYKEIEGHHHHHH” here?
A: soluble

Q: For “SLNSVKRVGGSNRYGTAVQISKQMYSTASTAVIVGGSSYADAISAAPLAYQKNAPLLYTNSDKLSYETKTRLKEMQTKNVIIVGGTPAVSSNTANQIKSLGIS”, which “soluble on expression in E. coli” value is on record?
A: not soluble

Q: For “MAHHHHHHMRIHAPPYPFFNFLFLCFHTEPRRIPRRTVSYTQVVPASIFHGMADRALTCVRPAAYFLPGDRASSFLSSGAILLFEERVCTPHKASESTVCPVAGHSKVFAPSCYVEPFSIIEVALEERRNRVGRMSWCFRLFAIKLRGGNPTQFPPPASSVEHVQV”, which “soluble on expression in E. coli” value is on record?
A: not soluble

Q: With “DDRGDFALVAGDALPQFSVEMSDGGVLNTQSFSGKVGVIVFFHTDCPDCQKELPVIQKVYDTYKENPDVLLSCISRSESGSEVQAYWEKHSFSLPFSAQNDDAVFSLFASHTIPRILITDKEGIIRAVYTDDPLATYQELAKDIDAVL” as the sequence, how does the “soluble on expression in E. coli” value read?
A: soluble

Q: Which “soluble on expression in E. coli” value does the source give for “GPGSMKTIRKRMRLSVSGRSSARSGMSSDTRLPAAVLERETKVINYSHSTSRAMAAQLENCVRLIRGYQASLQYCNEEIEGALLSLGVATTHSLISSITSVMEGLDTLSGVCRAMHEGYNEEVRHREDLHTSLTGAYISLKELHEATENELREVVAERDRKVAAFGKAVAYVEAVVAERMLWQEANGYNCAGLPVVEMSFSESCHEALRKFDDTVSEAQGEGHSNAESLLASTDVPQTLAKRWDNVENLRHTNGLPSARVLYVPPKDEVELLRNVLEMGTGDRALMWDVQQRERALQDSLTNIHVFGHSCLKALHSMREELAEFRQWFLTIDRKCEPIVVAMRKLGNGVCGLSSASDKNLPH” here?
A: not soluble

Q: Which “soluble on expression in E. coli” value does the source give for “MSDLTKLDWNHIRAFLKTAETGSLSAAARRLDLTQPTLSRQVAALEQDLGVMLFERIGRTLVLTDAGADLLEHTRAMGAAADRVALAASGQAQSIEGRVRITASDVMSAYVLPEALRRIRAQAPRLEIEVIAANDIRDLMRREADIAIRHVRPEQPDLIARLVREATAHFYAASGYLDRRGRPVTKDDLATHDFIAFGDVTEMLGHLTPLGLPLTRANFRLGSQSGVVAWDYVRQGFGIAPMDDGVAAATPGVERVLPQMEPLLFPVWLTAHRELHTSRRIRLVFDILAEYLTG” here?
A: not soluble

Q: For “MAKELCFEGITLKAFDEQYRSAINDFDLNERQQIYSSLPKEVIDDAINDVDRIANVAINDKNEVVGFFVLHRYYQHEGYDTPENVVYIRSLSINEKYQGFGYGTKIMMSLPQYVQGVFPDFNHLYLVVDAENDNAWNLYERAGFMHTATKEEGPIGKERLYYLDLDSKHVSSLKLEEESRSEVTNVHIINLMIDGQKVGFIALEQIGERMNIAAIEVDKSYRFNGIGSSALRQLPTYLRKNYDNLNVITMILFGENNDFKPLCLNSNFVEIEQTDDYVVFEKYLNY”, which “soluble on expression in E. coli” value is on record?
A: not soluble

Q: With “MFTIKKATTNDIQLINEMAQIVFPATYREILSKEQLDYMMDWMYSPKNLRKQMEEEGHIYYIAYKDGEAAGYVSIQPEGEHLFHLQKIYVLPLFQGCRLGKALFEQAVKAIKEIHPGPCEMHLNVNRNNKALQFYQHLGMEKVAEGDFHIGNGYYMNDYIMGLKI” as the sequence, how does the “soluble on expression in E. coli” value read?
A: not soluble

Q: For “MNKALSVENLGFYYQAENFLFQQLNFDLNKGDILAVLGQNGCGKSTLLDLLLGIHRPIQGKIEVYQSIGFVPQFFSSPFAYSVLDIVLMGRSTHINTFAKPKSHDYQVAMQALDYLNLTHLAKREFTSLSGGQRQLILIARAIASECKLILLDEPTSALDLANQDIVLSLLIDLAQSQNMTVVFTTHQPNQVVAIANKTLLLNKQNFKFGETRNILTSENLTALFHLPMFEQQAQYKESFFTHFVPLYKTLLK”, which “soluble on expression in E. coli” value is on record?
A: soluble

Q: For “MANEVIKCKAAVAWEAGKPLSIEEIEVAPPKAHEVRIKIIATAVCHTDAYTLSGADPEGCFPVILGHEGAGIVESVGEGVTKLKAGDTVIPLYIPQCGECKFCLNPKTNLCQKIRVTQGKGLMPDGTSRFTCKGKTILHYMGTSTFSEYTVVADISVAKIDPLAPLDKVCLLGCGISTGYGAAVNTAKLEPGSVCAVFGLGGVGLAVIMGCKVAGASRIIGVDINKDKFARAKEFGATECINPQDFSKPIQEVLIEMTDGGVDYSFECIGNVKVMRAALEACHKGWGVSVVVGVAASGEEIATRPFQLVTGRTWKGTAFGGWKSVESVPKLVSEYMSKKIKVDEFVTHNLSFDEINKAFELMHSGKSIRTVVKI”, which “soluble on expression in E. coli” value is on record?
A: soluble
